Laboratory results published in a protein production outcome set (Wang et al. 2014).

experiment: label from the status in PepcDB records
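Also: failed if final PepcDB status was selected cloned or expressed and not failed if soluble or beyond.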

Sequence | protein production
MAKNTFTPELLEKHFTKNEWKKGARIFQANGVKTCALDGEVIRGVVFSERSRESSYLTRLVFDGKFGDIASYCDCYVGRDCKHGSALAQCYIHEHFDRNSIATSETIIDKWLNRFQAQPTRYQPNTQQKSLLYFLKPNPYNEDDFLTLGIKSARPKNSGGWNSSIGSEYSASSLINSAYANDEDVAVLTELMRTNQYGDTIKYFDLFERIIKTNRSFWHTTYDLSEPVTLSEPLEAEWQWLALGNSLHTLKLVLMQPSESIRIIKAQPLCFYDEEKNCFGKINTNTQCDFEAGLLNSPIFEEDKLPWIMSKLSMSLGDAVKRLPKPKTKYSQELTQPDVYLHFTTPVASNRQTGYVQVNFSYQGNLVNPHDENVTITPSNVTKLSIDSDAQSDADSNIESGAYSNIEDEVERENVSPREIKIYRDLAFEQTVIDKLTTLKFNPQPKPKRYTYTSQDDLNKSKTPEFAMLMQGSVLWQRFLHQELSPLEDLGWHITFADDFYYKALSTDSVFDAEVMETDDHDFFSLGLNLTIDGKKMPAFPILLSAIEQLPRSALLDREKEDLISPDSPIYVDLDNGGFVALRYQSVQPILKQFIELFMPNALSHDGTIELSRFQGHQTLSMLDDQGMIAKGTSKLRALADKLKDFQQVTTIPVPEGLNATLRTYQHQGLNWLQFLREYQLNGILADDMGLGKTIQTLAHLLIEKQQGRLTKPILIVAPTSVIFNWANEIDKFTPQLSYQVLHGNKRHEQFGCLEGVENGENQVDIIITSYALITKDLAHYTDRKFYYLVLDEAHYIKNTKTKLYQAFLTLKAQHKLCLTGTPMENHLGEFWAQFNFLLPGFLGGQRQFTKLFRTPIEKHGELERKQLLNQRIKPFILRRTKDKIATELPPKTEIIQTLRIEGKQAELYESVRLAMDSRLKDIIADKGLKRSQIEVLDALLKLRQVCNHPKLLKLEGAKKVNQSAKLDYLMETLPEQIDEGRKILIFSQFTSMLSLIEDELIDAGIGYVKLTGSTTKRQEVVDKFQRGEVPVFLISLRAGGVGLNLTAADTVIHFDPWWNPAVENQATDRAYRIGQNKPVFVYKLIIENSIEEKIQKIQQNKAELAKALLSEEVSDNKLSLTDDILDSLLTPLS | failed
MAKSEEIIRERYKVMAPRIIKALNQRNFEAYFCETSEKAVECALSLIPQGASVAWGGSMTLEEIGLIQRLKEGNYQVIDRDTAKSQEERFSLMRQALLSDVYLASVNAMSEDGIMVNIDGRGNRISAIAFGPKTVILVVGMNKICRDLESARKRAHTYAAPNNALRLGLELPCTKTGCCFDCNKNNPSSICAQIVEMHSSIVPGRIKVILVGENLGL | failed
MAKSPKKSKSRLWFLVHSWLALPIWFFVLIVCFTGMLAVVSQEIVWLADPAARANKPDADTERMSFQQVLEALNKAEPDMVVERLSQPDGSHFAVKANVTLPDGTSPTLYVNPYTGTIQGRTPDFNFEAFTRALHGWWLVPFTNGFSWGWYLVSLLGLPMLASLVTGLVVYKKFWKGFFKPVRTGHGSRIFWGDLHRLSGVWSIWFIAVISITGTWFLIQAILSDNHITISSRPIVPVIAREEVPQTPDGSPASRIDLDEAARLAGLAIPGLEVTSITLPATAYSHVTLSGPGWYPLMFQSASVNPYTRNVDSQFLISDRSALEFVTESMRPLHTGDFGGLPIKLVWFFFGLILTLMVLSGLLIWTKRTAQATAAALKRSERAPRAAHSETTVEIHS | failed
MAKSQIEPGVPITLQELYPSSLFYKEGVSLRVTAMLRGYSVETAIGVIEDGGRSLKINTQNIRDVSFRVGSIYQFIGELHIEQPNNEARTGRNVDGIDMNLYRKTIELLRQFLKEEDNSNMVE | failed
MAKVKVLFVRNLANTVTEEILEKAFSQFGKLERVKKLKDYAFIHFDERDGAVKAMEEMNGKDLEGENIEIVFAKPPDQKRKERKAQRQAA | not failed
MAKVLVLNASYEPLNITHWQRAVVLLLKDKAEALENNGKLIYANFPLPSVIRLRQYIKVPYKEIPLTRRNVLERDRHTCQYCNYKGEQLTLDHVIPRSRGGGDSWENLVTACVRCNIKKGNRTPREAQMSLNYTPRRPYSSLLFEIIKHTRNDRNHEWRKYVIGILEHHHHHH | failed
MAKVNITRDLIRRQIKERGALSFERRYHVTDPFIRRLGLEAELQGHSGCVNCLEWNEKGDLLASGSDDQHTIVWDPLHHKKLLSMHTGHTANIFSVKFLPHAGDRILITGAADSKVHVHDLTVKETIHMFGDHTNRVKRIATAPMWPNTFWSAAEDGLIRQYDLRENSKHSEVLIDLTEYCGQLVEAKCLTVNPQDNNCLAVGASGPFVRLYDIRMIHNHRKSMKQSPSAGVHTFCDRQKPLPDGAAQYYVAGHLPVKLPDYNNRLRVLVATYVTFSPNGTELLVNMGGEQVYLFDLTYKQRPYTFLLPRKCHSSGEVQNGKMSTNGVSNGVSNGLHLHSNGFRLPESRGHVSPQVELPPYLERVKQQANEAFACQQWTQAIQLYSKAVQRAPHNAMLYGNRAAAYMKRKWDGDHYDALRDCLKAISLNPCHLKAHFRLARCLFELKYVAEALECLDDFKGKFPEQAHSSACDALGRDITAALFSKNDGEEKKGPGGGAPVRLRSTSRKDSISEDEMVLRERSYDYQFRYCGHCNTTTDIKEANFFGSNAQYIVSGSDDGSFFIWEKETTNLVRVLQGDESIVNCLQPHPSYCFLATSGIDPVVRLWNPRPESEDLTGRVVEDMEGASQANQRRMNADPLEVMLLNMGYRITGLSSGGAGASDDEDSSEGQVQCRPS | failed
MAKVTERYDVTWEEMRDKMRKWREENSRNSEQIMEVGEELINDYASKLGDDIWIIYEQVMIAALDYGRDDLALFCLQELRRQFPGSHRVKRLTGMRFEAMERYDDAIQLYDRILQEDPTNTAARKRKIAIRKAQGKTVEAIRELNEYLEQFVGDQEAWHELAELYINEHDYAKAAFCLEELMMTNPHNHLYCQQYAEVKYTQGGLENLELSRKYFAQALKLNNRNMRALFGLYMSASHIASNPKASAKMKKDNIKYASWAANQINRAYQFAGRSKKETKYSLKAVEDMLETLQITQS | failed
MALARANSPQEALLWALNDLEENSFKTLKFHLRDVTQFHLARGELESLSQVDLASKLISMYGAQEAVRVVSRSLLAMNLMELVDYLNQVCLNDYREIYREHV | not failed
MALDLNDVALFVQVVRSGSFAQAARHLGMPSNTVSRKVQQLEIQLGTRLLHRSTRKLVLTQAGEDFHERCVGAVDGLMDAAEQLVSGREEPGGRLRIAAMADFFDFFSMEWVADFLAEYPRVQLEFVLSDERADLIADRLDIAFRGGPLQDSGYVGRQLIEEGHDTMVASPAYIAAHGMPDSLQSLHGHYCVSTAHPGGSTVWRLLGPDAKMHEVQMASRFNANTAQALRKATLAGLGIALLPATLIRSDLRDGRLVPVLTQYQRTSHGLHVLYPSRQHLPPAVSAFIALVMEKLRDKAFAAQ | failed
MALEIKILDYGDIELESSFLVLGRDCGRTRRVLTLGFLILGGKYPVVVDTGYRSNQIMETLGMRGLQYHEHMIENQLARHGVRMGDVRFVCHTHLHIDHAGKDDLFPMNTTVVLNRKELEYSVSGLMHPQYPAPDIKHLIDRLHTKSALRFLDLEITGPIELMPGVYCDAANAHTEGSMNIIVETADGIATICGDVIYDFNDQIVTPFNEIHDWEPRTTGNHGTSKRAEKASIKKLLSNSRYLLPVHDRPAKIEGGMVVGRLHDQVPGPIVQSLPPRNWFPA | failed
MALFIPTRLVSALALVGVSGLMLGCGSSGGGSNGTTASSAKAASSTPVAISSVAASSTAAVAGNIKLNQLGFLPESAKWAVVPAGVAASFTVINATTNAEVFSGNLSVAATWSASEESVKLADFSSVKTPGDYLLRVEGVNDSYPFTIANDVYSALTAASIKAFYFNRNSAELLATHAGMFARPPGHPDTQVLVHVSAASAARPAGTIISSPKGWYDAGDYNKYIVNSGIATYSLLAAYEHFPDIFNGQNLNIPESGDALPDLLNETLWNLEWMLSMQDPNDGGVYHKLTNKNFDGTVMPHQATSERYVVQKTTAAALDFAAVMATASRVVAQYESQLPGMSAKMLAAAESAWNWAVANPAITYKQPDDIKTGEYGDGNLADEFFWAAAELYITSKKDAYYTAMKPTETVATVPSWGDVRSLGWISLAHHRDNLTAVADKQLIANRIDGLAANLQSVWATSAYRVTMQKNDFVWGSNSVALGQAMMLVQGYRLNGKREYLDAAQAMLDYVLGRNATDMSFVTGYGDKSTLHPHHRPSEADGIVEPIPGFIAGGPQPGQQDKSGCSVSYPSNIAAKSYLDNWCSYASNEIAINWNAPLVYVSAAIQALTPK | failed
MALHPTDYFRKERIFVDRETCIDNFRRFIQNSNNQDYNALFYYGIAGIGKSKLQHKLQNILNTEYPEMLWVSMDLENDTHRNVSTFLIALRNKIQKKCNVRFYKFNLAHAIFSKKSRPDIPLNKETYPMLKEDGFFYEILNSLNETAFGPFISIPVKRIVDIINQAPGNVRRHFGELPIDINKLESMEAHEIEKKLPGIFAADFTGSLGTNSRACIFIDTYEAIWKGWRGIGSFSEKDKWIRKCLIPNMPGVSWVICGRKQIKSLWIKDEQDWEMCMKEYPIEDLPEEYSEQFLKEYIEEEDIRSVIVKASEGVPCYLNLSVDTYEQVSRIKKPEVKDFPNTKIEVFEKFVKYLDNNEKRTLYILSAPNSWDRNLFKKLINEFNPTYSIYEFSDLIKYSFVKKITDEKFSLHQLMRKNLQEYQDPTYRKDVHLFLHEYYSNKIKDVDVRSITQEHEISLIEAYYHAREVLKFEDLGGWIAKYTEPFNEAGYWKTIYPMIEDFAEILKEKFGPDNIYYGIFVRKLAFLNEDRGKYNEAIFYYQQVLKIFEKNMGKKILENNDLVVDDHSIAMVTNDLANCYLSIGEYEKALTLQQNSLKTVQNKVNKDPLYIALLQQNIALTYQYLGQYNKAMELCQEALTVREACLGEEDLEVAKTAENLAVIHQQLGNYKEAFALAKRALNIREKKLGSKHPLVATNLSSLGVLCIIMGNLEEGLKYNQRAVKIAEERFEGDHISVAETLSNLGATYQYMLRYDDALEAYQRALNITEHSLGLENPKLVNILNNIAETYRKMENYEKALEFYQRALDIARNHLGKEHPTIALIMNNLGRLYMNTKEFDKAHTICQQALDIRGKTLGTDHVDFAITSLDLGIIYGCVGRRDYALPLLEHSLRIFEQKLGSDHIYTKNAKLVVDTLKESR | failed
MALILTFLGKSGVARTKIAIAAAKLLASQGKRVLLAGLAEPVLPLLLEQTLTPDPQQIAPNLEVVQFQSSVLLERNWEEVKKLEAQYLRTPIIKEVYGQELVVLPGMDSALALNAIREYDASGKYDAIVYDGTGDAFTLRMLGLPESLSWYVRRFRQLFVNSDLGKTIAESPLIQPLISSFFNVNWTADNFAQPTNQVNNFLDKGKEALADPKRVAAFLVTTADPLEVVSVRYLWGSAQQIGLTIGGVIQVSSQTEGDLSAEFTPLSVTVVPDVTKGDWQPLIDALPNFVEQAEQAPKPITIDTHNRQVRLFLPGFDKKQVKLTQYGPEVTVEAGDQRRNIFLPPALSGRPITGAKFQNNYLIISFLEHHHHHH | not failed
MALKEAHQPQTQPLWHQLGLVLAKHFEPQDAKAVLQLLRQEHEERLQKISLEHLEQLAQYLLAEEPHVEPAGERELEAKARP | failed
MALLMSVKRQLYLWHRWLGIVACLFMALWFVSGVVMLYVGYPKLTPAERLAHLPALPAGCCAELPEHWAQQPLKALRLTSLGGRAHHLLELADGRRVILDAASGEPLARADAAWALANARQYAGEAGLAYLGTVDEDMWTHSRALDGDRPLHHVQVDDTAGTWLYLSSRTGEVVRDATAQERAWNWVGAWLHWLYPLRGGFGFDNGWRTLVIGLSLGATVMALLGMTVGILRLRLRKRYRSGSCSPYPGGWLRWHHIGGLLFGTVLVLWVFSGLMSMRPWGVTDSRSQLAPQALRQGPLRAMDIGQTVAQAMASLGREPGFNPVEIQWQRLGGDTFLVARNAAGDSRILEAGAPPARALSEQRLLTAARAMAAGVVVQANWQGHYDAYYFTRDAQSMYGFQSRPLPVLRLRFDDPASTWVYLDPASAEVVASHDARQRAGRWLFNLLHSWDLQPLLQRPVLREGLIIALSIGGLVVSLSGVVLGWRRLRRMTARVRG | failed
